These results are taken from patent US20170129954A1 (PROTHENA BIOSCIENCES, published 2017).

Holding throughout (assay): shotgun mutagenesis library, immunofluorescence on BHK cells, triplicate, background-subtracted and normalized to WT
For assay [1], the target named is T1, human MCAM Y318A mutant (shotgun mutagenesis library, on BHK cells) (human, UniProt P43121 24-646).
T1 chain: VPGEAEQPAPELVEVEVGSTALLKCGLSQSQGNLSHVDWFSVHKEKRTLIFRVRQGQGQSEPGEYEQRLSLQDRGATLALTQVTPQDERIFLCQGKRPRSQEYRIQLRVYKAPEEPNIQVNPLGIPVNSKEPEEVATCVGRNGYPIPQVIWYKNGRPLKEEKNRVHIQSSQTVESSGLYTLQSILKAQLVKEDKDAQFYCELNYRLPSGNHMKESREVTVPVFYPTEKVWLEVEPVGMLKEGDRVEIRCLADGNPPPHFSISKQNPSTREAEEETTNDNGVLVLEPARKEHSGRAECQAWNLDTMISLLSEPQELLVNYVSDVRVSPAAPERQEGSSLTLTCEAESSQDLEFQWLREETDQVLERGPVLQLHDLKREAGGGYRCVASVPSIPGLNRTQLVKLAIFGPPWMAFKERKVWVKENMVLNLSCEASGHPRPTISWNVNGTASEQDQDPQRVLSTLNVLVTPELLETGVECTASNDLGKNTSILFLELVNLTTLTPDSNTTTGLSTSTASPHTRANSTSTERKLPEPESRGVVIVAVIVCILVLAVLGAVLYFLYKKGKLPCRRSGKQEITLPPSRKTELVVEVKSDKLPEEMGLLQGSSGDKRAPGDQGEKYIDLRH
As to the method: (§1) The mutation library was assayed for surface expression (mouse sera binding) and monoclonal antibody binding, in triplicate. Each raw data point was background-subtracted and normalized to the wild type MCAM reactivity values. The mean monoclonal antibody binding value for each clone is plotted as a function of its mean surface expression value (FIG. 1, gray diamonds). Thresholds of <30% monoclonal antibody reactivity and >50% mouse sera binding were applied to identify clones (FIG. 1, black diamonds) that were negative for monoclonal antibody binding but positive for surface expression.
(§2) Residues involved in antibody binding were identified as those that were negative for monoclonal antibody binding (<30% WT) but positive for surface expression (>50% WT) (Table 4). The mean reactivity (and standard deviation) were determined for each critical residue.

Assay [2] has as its target T2, human MCAM C320A mutant (shotgun mutagenesis library, on BHK cells) (human, UniProt P43121 24-646).
T2 chain: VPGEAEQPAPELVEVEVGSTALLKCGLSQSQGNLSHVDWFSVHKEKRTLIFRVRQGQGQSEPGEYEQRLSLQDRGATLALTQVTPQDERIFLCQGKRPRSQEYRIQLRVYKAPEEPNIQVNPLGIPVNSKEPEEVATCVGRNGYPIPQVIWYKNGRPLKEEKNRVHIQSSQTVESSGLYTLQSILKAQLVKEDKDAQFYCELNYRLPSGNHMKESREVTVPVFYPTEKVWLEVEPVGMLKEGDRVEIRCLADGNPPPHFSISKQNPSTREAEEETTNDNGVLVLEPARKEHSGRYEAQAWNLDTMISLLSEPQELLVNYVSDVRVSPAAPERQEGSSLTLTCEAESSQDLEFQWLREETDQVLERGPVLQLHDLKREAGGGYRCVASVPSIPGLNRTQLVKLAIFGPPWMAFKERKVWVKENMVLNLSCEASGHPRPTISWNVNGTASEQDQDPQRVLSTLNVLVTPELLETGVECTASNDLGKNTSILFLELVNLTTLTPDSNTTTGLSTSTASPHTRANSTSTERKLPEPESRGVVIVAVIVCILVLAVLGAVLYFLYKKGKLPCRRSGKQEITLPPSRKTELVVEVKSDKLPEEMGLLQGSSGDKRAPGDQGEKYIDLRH
As to the method:
as §1, §2

For assay [3], the target named is T3, human MCAM W377A mutant (shotgun mutagenesis library, on BHK cells) (human, UniProt P43121 24-646).
T3 chain: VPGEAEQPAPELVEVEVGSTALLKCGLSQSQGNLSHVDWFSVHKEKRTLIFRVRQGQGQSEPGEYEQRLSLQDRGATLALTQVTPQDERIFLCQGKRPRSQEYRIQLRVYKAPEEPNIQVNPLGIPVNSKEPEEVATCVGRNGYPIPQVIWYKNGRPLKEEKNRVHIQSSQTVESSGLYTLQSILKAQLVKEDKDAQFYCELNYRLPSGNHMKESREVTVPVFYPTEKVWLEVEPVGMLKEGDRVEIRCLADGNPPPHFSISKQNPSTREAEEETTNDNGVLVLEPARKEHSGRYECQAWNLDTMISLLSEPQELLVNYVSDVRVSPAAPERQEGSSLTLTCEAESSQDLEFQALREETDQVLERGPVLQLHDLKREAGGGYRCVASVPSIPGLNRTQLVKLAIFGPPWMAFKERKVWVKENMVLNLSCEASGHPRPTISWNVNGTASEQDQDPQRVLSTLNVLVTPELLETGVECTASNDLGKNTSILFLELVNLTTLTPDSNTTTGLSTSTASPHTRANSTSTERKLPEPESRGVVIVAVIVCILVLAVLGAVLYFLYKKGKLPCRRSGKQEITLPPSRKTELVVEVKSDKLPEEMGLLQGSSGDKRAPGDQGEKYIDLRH
As to the method:
as §1, §2

B1: mouse anti-human MCAM monoclonal antibody clone 1749.1.3 (antibody, V domains shown)
VH: DVKLVESGGDLVKPGGSLKLSCAASGFTFSSYIMSWVRQTPEKRLEWVATISSGGSSTYYPDSVKGRFTISRDNAKNTLYLQMSSLKSEDTAMYYCTRDDDYDVKVFAYWGQGTLVTVSA
VL: DIVMSQSPSSLAVSAGEKVTMNCKSSRSLLNSRIRKNYLAWYQQKPGQSPKLLIYWASTRESGVPDRFTGSGSGTDFTLTISSVQAEDLAVYYCKQSYNLLTFGAGTKLELK
notes: Mouse hybridoma monoclonal antibody; also called m1749
As to B1, the results for the “mean reactivity (% of wild type MCAM), standard deviation in brackets” value in assay [1], in assay [2] and in assay [3] were 7.1 % of WT, 9.3 % of WT and 13.7 % of WT, respectively.
